Results: US20240400640A1 (published 2024)

Target: IL-21-Fc
Experiment: SPR

Kd: 1.68 pM
B1: hIL-21 receptor (receptor)
chain: not shown
